Measured values taken from patent US20250114450A1, “PHARMACEUTICAL COMBINATION CONTAINING ANTI-PD-1-ANTI-VEGFA BISPECIFIC ANTIBODY, AND USE THEREOF” (Akeso Biopharma, Inc., priority 2021, published 2025).
pKd: −log10 of the molar value.

Target: FcγRI (UniProt P12314)
Test: BLI (Fortebio Octet), FcγRI immobilized on HIS1K sensor, antibody 3.12-50 nM, 1:1 fit

Sequence of FcγRI (P12314 16-288 limits assumed): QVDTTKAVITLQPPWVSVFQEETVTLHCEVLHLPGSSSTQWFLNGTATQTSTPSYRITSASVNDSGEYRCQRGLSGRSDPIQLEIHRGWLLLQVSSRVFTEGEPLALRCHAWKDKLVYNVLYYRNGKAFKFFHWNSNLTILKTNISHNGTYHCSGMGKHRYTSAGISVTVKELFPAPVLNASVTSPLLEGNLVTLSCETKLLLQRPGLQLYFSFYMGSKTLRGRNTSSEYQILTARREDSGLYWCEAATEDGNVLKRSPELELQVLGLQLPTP

pKd: 8.21
Substance: Nivolumab (antibody)
